From publication PMC7939478, “Development of a novel mammalian display system for selection of antibodies against membrane proteins” (The Journal of Biological Chemistry, 2020)

Target: T1, human epithelial cell adhesion molecule (EpCAM) on CHO–EpCAM cells (Homo sapiens, UniProt P16422)
T1 construct: BC014785.1, expressed on the surface of CHO cells; source: CHO-X cells, lentiviral transduction, doxycycline-inducible, on the cell surface (clone SP1D12)
Test: flow cytometry on cells; self-labeling: CHO–EpCAM cells transduced with the HA-tagged scFv, cultured 3 days with or without doxycycline, stained with anti-HA-PE
Conditions: partners not purified

T1 sequence (P16422 24-314): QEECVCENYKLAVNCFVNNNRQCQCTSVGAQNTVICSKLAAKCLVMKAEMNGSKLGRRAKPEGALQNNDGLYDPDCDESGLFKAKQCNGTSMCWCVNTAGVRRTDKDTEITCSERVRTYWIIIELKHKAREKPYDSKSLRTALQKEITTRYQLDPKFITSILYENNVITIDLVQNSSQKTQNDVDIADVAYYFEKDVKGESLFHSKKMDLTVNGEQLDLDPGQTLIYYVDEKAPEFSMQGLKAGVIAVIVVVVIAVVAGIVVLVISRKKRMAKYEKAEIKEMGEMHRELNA

B1: known anti-EpCAM scFv with a C-terminal HA tag (scFv, V domains shown)
VH: VQLLEQSGAELVRPGTSVKISCKASGYAFTNYWLGWVKQRPGHGLEWIGDIFPGSGNIHYNEKFKGKATLTADKSSSTAYMQLSSLTFEDSAVYFCARLRNWDEPMDYWGQGTTVTVSS
VL: ELVMTQSPSSLTVTAGEKVTMSCKSSQSLLNSGNQKNYLTWYQQKPGQPPKLLIYWASTRESGVPDRFTGSGSGTDFTLTISSVQAEDLAVYYCQNDYSYPLTFGAGTKLEIK
notes: Cloned into the pSF lentivector used for the scFv library; also called control anti-EpCAM scFv; source: CHO–EpCAM cells, lentiviral transduction, secreted by the same cells that carry the target; not shown: HA, C-terminal, kept
- fold increase in self-labeling signal (with against without doxycycline): > 100 fold
